24 molecules from patent publication EP4296276A1 (Forschungszentrum Jülich GmbH, dated 2023) can be followed below.

Ends that are not written are not given here.

Common to all, as to test: BLI (Octet), peptide immobilised, protein 2 µM; KD = koff/kon
For orientation: In BLI a coated tip is dipped into the sample, and binding shifts an interference pattern.

For assay [1], the target named is T1, DISC1 C-region (residues 691-836) mutant S713E (human, UniProt Q9NRI5 691-836).
T1 construct: range 691-836; Expression and tag are described only for the WT construct (N-terminal His6)
T1 sequence (looked up): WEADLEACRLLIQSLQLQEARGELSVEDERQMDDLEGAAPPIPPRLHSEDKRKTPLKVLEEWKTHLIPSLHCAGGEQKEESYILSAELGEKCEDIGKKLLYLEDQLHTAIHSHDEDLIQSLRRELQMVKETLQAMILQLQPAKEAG

For assay [2], the target named is T2, DISC1 C-region (residues 691-836) mutant S704C (human, UniProt Q9NRI5 691-836).
T2 construct: range 691-836; Expression and tag are described only for the WT construct (N-terminal His6)
T2 sequence (looked up): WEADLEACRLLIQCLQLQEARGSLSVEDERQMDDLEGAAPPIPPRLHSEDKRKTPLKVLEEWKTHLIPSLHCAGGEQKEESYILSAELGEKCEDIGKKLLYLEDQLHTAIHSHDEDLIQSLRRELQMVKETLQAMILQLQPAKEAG

Assay [3] deals with T3, wild-type (WT) human DISC1 C-region (residues 691-836) (human, UniProt Q9NRI5 691-836).
T3 construct: range 691-836; Expressed in E. coli as an N-terminal His6 fusion construct, purified on Co2+-NTA and by size exclusion; Used in solution at 2 µM in BLI; also called WT C-region; C-region of DISC1; not shown: N-terminal His6 fusion tag
T3 sequence (looked up): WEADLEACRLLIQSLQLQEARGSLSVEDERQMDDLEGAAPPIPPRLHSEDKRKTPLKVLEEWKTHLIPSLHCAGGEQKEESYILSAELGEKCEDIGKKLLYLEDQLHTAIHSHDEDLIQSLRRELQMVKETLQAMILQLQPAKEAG

Assay [4] has as its target DISC1 C-region mutant L807-frameshift (human) (UniProt Q9NRI5).

B1: Flo11 (TSGVPWWKFQQQVRRT-NH2) (peptide)
peptide: TSGVPWWKFQQQVRRT-NH2
notes: Phage display hit selected on oligomeric WT C-region; Immobilised on the BLI sensor by EDC/NHS coupling
Consider B1, for which the Kd in assay [1] is 890 nM; in assay [2], 1060 nM; in assay [3] it was 3680 nM.
For SNWHPRHFFMSPSSPQ-NH2 [Flo6 (…-NH2)], the Kd in assay [4] was determined as 170 nM.
As for IWAGHIHDWWRRGQGS-NH2 (not fully specified; printed as IWAGHIHDWWRRGQGS-NH2) [Flm1 (…-NH2)], in assay [4], the dissociation constant (Kd) was found to be 200 nM.

B2: Flo1 (FPHPTLKHREFMRHVS-NH2) (peptide)
peptide: FPHPTLKHREFMRHVS-NH2
notes: as for B1
With B2, the results for the Kd in assay [1], in assay [2] and in assay [3] were 70 nM, 160 nM and 100 nM, respectively.
As for AWQHHELKWKQYQGWR-NH2 [Flm2 (…-NH2)], the Kd in assay [4] was 110 nM.
On to KYTAIHEWYKAHNGGA-NH2 [Flo8 (…-NH2)], for which the Kd in assay [4] was found to be 170 nM.
Turning to GIKSLISNKMHTQWNY-NH2 [Flm5 (…-NH2)], the dissociation constant Kd in assay [4] stood at 110 nM.
Consider FPHPTLKHREFMRHVS-NH2 [Flo1 (…-NH2)], for which the Kd in assay [4] was 40 nM.
In the case of TSGVPWWKFQQQVRRT-NH2 [Flo11 (…-NH2)], the Kd in assay [4] came out at 160 nM.

B3: Flo3 (HISMQTYKWSQWAKHQ-NH2) (peptide)
peptide: HISMQTYKWSQWAKHQ-NH2
notes: as for B1
For the molecule B3, the Kd in assay [1] is 420 nM; in assay [2], 270 nM; in assay [3], 2620 nM.
With WNHPMNIRSISWHKDS-NH2 [Flm6 (…-NH2)], the Kd in assay [4] turned out to be 530 nM.
Still for that read-out and setting: with HKLHHLLKWENQHKVE-NH2 [Flm11 (…-NH2)] the figure was 540 nM; with HISMQTYKWSQWAKHQ-NH2 [Flo3 (…-NH2)], 400 nM.

B4: Flm1 (IWAGHIHDWWRRGQGS-NH2) (peptide)
peptide: IWAGHIHDWWRRGQGS-NH2
modifications: not fully specified; printed as IWAGHIHDWWRRGQGS-NH2
notes: Phage display hit selected on monomeric WT C-region; Immobilised on the BLI sensor by EDC/NHS coupling
Take B4: the Kd in assay [1] was determined as 80 nM; in assay [2], 80 nM; in assay [3], 150 nM.

B5: Flm5 (GIKSLISNKMHTQWNY-NH2) (peptide)
peptide: GIKSLISNKMHTQWNY-NH2
notes: as for B4
Consider B5, for which the Kd is 80 nM in assay [1], 150 nM in assay [2] and 640 nM in assay [3].

B6: Flm6 (WNHPMNIRSISWHKDS-NH2) (peptide)
peptide: WNHPMNIRSISWHKDS-NH2
notes: as for B4
Take B6: the Kd in assay [1] is 1070 nM; in assay [2] it was 2240 nM; in assay [3], 2010 nM.

B7: Flo6 (SNWHPRHFFMSPSSPQ-NH2) (peptide)
peptide: SNWHPRHFFMSPSSPQ-NH2
notes: as for B1
For the molecule B7, the Kd in assay [1] was 460 nM; in assay [2] it was 720 nM; in assay [3], 2360 nM.
With PWYNAPHSHGFWGSGR-NH2 [Flm9 (…-NH2)], in assay [4], the Kd was 390 nM.

B8: Flm9 (PWYNAPHSHGFWGSGR-NH2) (peptide)
peptide: PWYNAPHSHGFWGSGR-NH2
notes: as for B4
Take B8: the Kd in assay [1] stood at 1500 nM; in assay [2], 1490 nM; in assay [3], 3200 nM.

B9: Flo5 (QDNPWWHEHKHWKSWP-NH2) (peptide)
peptide: QDNPWWHEHKHWKSWP-NH2
notes: as for B1
On to B9, for which the Kd in assay [1] was 210 nM; in assay [2], 360 nM; in assay [3] it was 250 nM.

B10: Flm2 (AWQHHELKWKQYQGWR-NH2) (peptide)
peptide: AWQHHELKWKQYQGWR-NH2
notes: as for B4
For B10, the figures for the Kd in assay [1], in assay [2] and in assay [3] were 220 nM, 150 nM and 640 nM, respectively.

B11: Flo8 (KYTAIHEWYKAHNGGA-NH2) (peptide)
peptide: KYTAIHEWYKAHNGGA-NH2
notes: as for B1
Consider B11, for which the Kd in assay [1] is 460 nM; in assay [2] it was 1040 nM; in assay [3], 2620 nM.

B12: Flm11 (HKLHHLLKWENQHKVE-NH2) (peptide)
peptide: HKLHHLLKWENQHKVE-NH2
notes: as for B4
Consider B12, for which the Kd amounted to 420 nM in assay [1], 720 nM in assay [2] and 1270 nM in assay [3].
Regarding QDNPWWHEHKHWKSWP-NH2 [Flo5 (…-NH2)], the dissociation constant (Kd) in assay [4] is 270 nM.

For orientation: Kd means the equilibrium constant for the complex coming apart.
